Consider 78 sequences from the supplement of paper PMC10126150.

± gives the standard deviation of the averaged measurements.

The data set deals with ATP. Nature of the data set: switch fluorescence ratio, 500 uM ATP over buffer (Cy3 cluster intensity, sum of 5 cycles each) (fold (ratio)); higher = stronger signal-on switching upon ATP binding; sequences stand for … in TCGTCGGCAGCGTCAGATGTGTATAAGAGACAGTTTTTTTTTTTTTTTTTTTTTTTTT…TC. To be noted: aptamer strand: ATP DNA aptamer (quencher-CACCTGGGGGAGTATTGCGGAGGAAGG + anchor), 100 nM annealed; ATP concentration: 500 uM. The procedure, abridged:
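Between each of five buffer/ATP cycles, the flow-cell was stripped with NaOH and re-annealed. Each cycle imaged Cy3-labelled switching-strand clusters, annealed to 100 nM quencher-labelled ATP aptamer on a modified Illumina MiSeq flow-cell, first in selection buffer and then after 15 min with 500 uM ATP at 22 °C. The fluorescence ratio is summed target-cycle over summed buffer-cycle Cy3 intensity per cluster, averaged per switch-domain sequence, with clusters outside 100-1000 RFU excluded.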
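Also: ATP exposure 15 min at 22 °C before imaging.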

Regarding TTATTTATGC, the switch fluorescence ratio worked out at 1.02 ± 0.055.

For the sequence CATGTCGGCA, the switch fluorescence ratio is 1 ± 0.019.

On to GAAGTAAGCT, for which the switch fluorescence ratio came to 0.983 ± 0.026.

With ACCTGTATGG, the switch fluorescence ratio was 1.03 ± 0.044.

Turning to TAACCGGGGG, the switch fluorescence ratio was 1.67 ± 1.2.

For the sequence TGGGGTTCGG, the switch fluorescence ratio was found to be 1 ± 0.079.

As for CGTTTTTGCC, the switch fluorescence ratio was 1.0037 ± 0.00025.

Take AGGGTAAAGT: the switch fluorescence ratio amounted to 0.98 ± 0.018.

Turning to TTTGAGTGGG, the switch fluorescence ratio amounted to 0.994 ± 0.025.

Regarding ACAGAACAGT, the switch fluorescence ratio was 1.03 ± 0.016.

For GCTGCTTAGG, the switch fluorescence ratio was 0.974 ± 0.018.

Turning to GTGGGGCGCC, the switch fluorescence ratio amounted to 1.01 ± 0.03.

Consider AATAGGGTGC, for which the switch fluorescence ratio was determined as 1.07 ± 0.045.

For GGAGGGCAAC, the switch fluorescence ratio turned out to be 1.01 ± 0.028.

As to ATGTTTGGGG, the switch fluorescence ratio was determined as 1.03 ± 0.084.

On to AAATCGAGCG, for which the switch fluorescence ratio came out at 0.969 ± 0.025.

For the sequence ATGTAGAGG, the switch fluorescence ratio is 0.988 ± 0.013.

TTAGGGGAAT: the switch fluorescence ratio amounted to 1.43 ± 0.75.

As for GAGTAATGAG, the switch fluorescence ratio came to 0.984 ± 0.068.

Turning to CAAGAGGGGG, the switch fluorescence ratio worked out at 0.978 ± 0.043.

Turning to GAGTACGTTA, the switch fluorescence ratio came out at 1.16 ± 0.013.

Turning to GCGGGGCACA, the switch fluorescence ratio was determined as 0.987 ± 0.022.

For CAGCCCTTGA, the switch fluorescence ratio came out at 1.024 ± 0.0083.

Regarding AAGCGAACAT, the switch fluorescence ratio was found to be 1.08 ± 0.076.

Consider GGGAAAAGAT, for which the switch fluorescence ratio is 0.978 ± 0.042.

GCCTTTTGCT: the switch fluorescence ratio was 0.988 ± 0.018.

For GCATTTAATG, the switch fluorescence ratio amounted to 1 ± 0.05.

For GGTAGATAGT, the switch fluorescence ratio is 0.979 ± 0.029.

As for ACGGAAAACG, the switch fluorescence ratio turned out to be 1.023 ± 0.0093.

Regarding GAACTCTTAG, the switch fluorescence ratio was determined as 1.02 ± 0.019.

On to CTATTAAGGG, for which the switch fluorescence ratio amounted to 0.976 ± 0.056.

Regarding CGTGTGGGAC, the switch fluorescence ratio came to 1.0136 ± 0.00016.

Turning to TAGACGTTGG, the switch fluorescence ratio turned out to be 1.02 ± 0.014.

For the sequence GGGATAAAGT, the switch fluorescence ratio was found to be 0.988 ± 0.022.

Turning to AGTTGGGACT, the switch fluorescence ratio was 1.016 ± 0.0068.

Consider GAGTGGGTTG, for which the switch fluorescence ratio worked out at 0.982 ± 0.0092.

As to GATTATCTGG, the switch fluorescence ratio was determined as 0.984 ± 0.025.

As to TCGTTGTGAG, the switch fluorescence ratio was 1.004 ± 0.0089.

In the case of TGCGGCGGGG, the switch fluorescence ratio is 1.07 ± 0.035.

Regarding AAAACGGGAA, the switch fluorescence ratio was determined as 1.02 ± 0.018.

As to TTTTGATTAC, the switch fluorescence ratio worked out at 1.01 ± 0.065.

Take GTGTGCAGGG: the switch fluorescence ratio amounted to 0.945 ± 0.031.

In the case of TTTGTTAGCG, the switch fluorescence ratio amounted to 1.01 ± 0.053.

As to TGATAAACGG, the switch fluorescence ratio worked out at 1 ± 0.019.

With TTATGACTCA, the switch fluorescence ratio is 1.01 ± 0.03.

As to GGTATGAGTG, the switch fluorescence ratio was found to be 0.9737 ± 0.006.

With TGATTGTATT, the switch fluorescence ratio turned out to be 0.979 ± 0.015.

Consider CGAAAGGCTA, for which the switch fluorescence ratio amounted to 1.15 ± 0.18.

As for TTGTGAGTGC, the switch fluorescence ratio came out at 0.91 ± 0.023.

In the case of AAGCTCCTTT, the switch fluorescence ratio turned out to be 0.968 ± 0.011.

On to GGGAATAACG, for which the switch fluorescence ratio stood at 0.972 ± 0.058.

In the case of AAAGGATGG, the switch fluorescence ratio turned out to be 0.997 ± 0.036.

As for TTTATAGGGT, the switch fluorescence ratio came to 1 ± 0.032.

GGGCCTGCTT: the switch fluorescence ratio was 0.97 ± 0.052.

As to ACTGAAGGGG, the switch fluorescence ratio amounted to 1.02 ± 0.059.

Take TTAATAATAT: the switch fluorescence ratio stood at 1 ± 0.021.

For the sequence ACGAGGGGCG, the switch fluorescence ratio was found to be 1 ± 0.045.

Regarding GTGGTGAGTG, the switch fluorescence ratio turned out to be 0.97 ± 0.021.

Consider TTTTATTGTG, for which the switch fluorescence ratio was determined as 1 ± 0.027.

Take GGTGATGAGA: the switch fluorescence ratio was found to be 0.991 ± 0.06.

Turning to AAACGAGGGA, the switch fluorescence ratio was found to be 0.997 ± 0.051.

For CTATTCGGGG, the switch fluorescence ratio is 0.981 ± 0.01.

Consider TAGGGGGAGA, for which the switch fluorescence ratio is 1.06 ± 0.043.

Take TTGTTAAATC: the switch fluorescence ratio turned out to be 1.02 ± 0.038.

Take GCCGGTGCTC: the switch fluorescence ratio turned out to be 0.996 ± 0.021.

On to ATTCGGGGTG, for which the switch fluorescence ratio came to 1.05 ± 0.11.

With CCAGTCATCA, the switch fluorescence ratio was found to be 0.9961 ± 0.0014.

As to TTACGGTGGC, the switch fluorescence ratio was 0.989 ± 0.045.

For GGTAGACCGC, the switch fluorescence ratio is 0.987 ± 0.053.

As for ACGTGCGCAG, the switch fluorescence ratio came out at 1.07 ± 0.018.

In the case of CGCAACTATG, the switch fluorescence ratio amounted to 1.56 ± 0.026.

Take CATTTAGGGA: the switch fluorescence ratio is 1.01 ± 0.029.

Turning to TTCCCGGCTG, the switch fluorescence ratio was 1.03 ± 0.016.

In the case of GCTATTATTT, the switch fluorescence ratio turned out to be 0.9845 ± 0.0027.

Regarding GGGGGATTGC, the switch fluorescence ratio came out at 1.02 ± 0.066.

With CGTGAGGCAG, the switch fluorescence ratio turned out to be 0.978 ± 0.056.

On to TTCAAGTGTT, for which the switch fluorescence ratio was 0.987 ± 0.029.

As to TTATTGCACG, the switch fluorescence ratio is 1.07 ± 0.068.
